Measurements published in the supplement of paper PMC9112550, “Optimization of the antimicrobial peptide Bac7 by deep mutational scanning” (BMC Biology, 2022).

Test system: Escherichia coli TOP10
Test: shrunken log2 fold change of peptide-encoding DNA abundance (4.5 h post-induction vs induction); higher = less antimicrobial activity (less host growth inhibition)
Conditions: time post-induction: 4.5 h; library: site-saturation at positions 5, 18, 19, 20
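Also: peptides expressed intracellularly from a pBAD plasmid library in pooled LB shake-flask culture, induced with 0.3% L-arabinose, DNA abundance read by NGS, three biological replicates, DESeq2 with apeglm shrinkage.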

For RRIRYRPPRLPRPRPRPLDSPRP, the “shrunken log2 fold change” value was -0.403.
With RRIRFRPPRLPRPRPRPHISPRP the “shrunken log2 fold change” value was -0.419.
For RRIRIRPPRLPRPRPRPSITPRP, the “shrunken log2 fold change” value was 0.141.
RRIRRRPPRLPRPRPRPVEMPRP was tested, and the “shrunken log2 fold change” value was 0.483.
With RRIRPRPPRLPRPRPRPLVHPRP the “shrunken log2 fold change” value was -0.00919.
RRIRPRPPRLPRPRPRPTNYPRP was tested, and the “shrunken log2 fold change” value was -0.542.
RRIRPRPPRLPRPRPRPAEGPRP was tested, and the “shrunken log2 fold change” value was 0.394.
In the case of RRIRNRPPRLPRPRPRPNSQPRP, the “shrunken log2 fold change” value is reported as -0.265.
In the case of RRIRMRPPRLPRPRPRPFQFPRP, the “shrunken log2 fold change” value is reported as -0.0349.
For RRIRKRPPRLPRPRPRPPHWPRP, the “shrunken log2 fold change” value was 0.756.
For RRIRIRPPRLPRPRPRPLVNPRP, the “shrunken log2 fold change” value was -0.814.
With RRIRDRPPRLPRPRPRPANIPRP the “shrunken log2 fold change” value was -0.114.
RRIRSRPPRLPRPRPRPKTTPRP was tested, and the “shrunken log2 fold change” value was 0.103.
In the case of RRIRGRPPRLPRPRPRPQCIPRP, the “shrunken log2 fold change” value is reported as 0.438.
In the case of RRIRHRPPRLPRPRPRPATCPRP, the “shrunken log2 fold change” value is reported as -0.196.
With RRIRWRPPRLPRPRPRPCKCPRP the “shrunken log2 fold change” value was -0.0392.
RRIRRRPPRLPRPRPRPCHWPRP was tested, and the “shrunken log2 fold change” value was 0.092.
RRIRCRPPRLPRPRPRPFYAPRP was tested, and the “shrunken log2 fold change” value was -0.813.
RRIRERPPRLPRPRPRPHPWPRP was tested, and the “shrunken log2 fold change” value was -0.392.
In the case of RRIRFRPPRLPRPRPRPTNYPRP, the “shrunken log2 fold change” value is reported as -0.587.
In the case of RRIRARPPRLPRPRPRPDGTPRP, the “shrunken log2 fold change” value is reported as 0.288.
With RRIRCRPPRLPRPRPRPAHEPRP the “shrunken log2 fold change” value was 0.238.
With RRIRARPPRLPRPRPRPPICPRP the “shrunken log2 fold change” value was -0.0154.
In the case of RRIRMRPPRLPRPRPRPHDMPRP, the “shrunken log2 fold change” value is reported as 0.0059.
With RRIRCRPPRLPRPRPRPVWAPRP the “shrunken log2 fold change” value was 0.351.
For RRIRDRPPRLPRPRPRPIGYPRP, the “shrunken log2 fold change” value was -0.174.
For RRIRTRPPRLPRPRPRPAVIPRP, the “shrunken log2 fold change” value was 0.0431.
With RRIRLRPPRLPRPRPRPAMHPRP the “shrunken log2 fold change” value was 0.0794.
RRIRFRPPRLPRPRPRPKYLPRP was tested, and the “shrunken log2 fold change” value was -0.451.
RRIRNRPPRLPRPRPRPRREPRP was tested, and the “shrunken log2 fold change” value was 0.38.
With RRIRNRPPRLPRPRPRPMIMPRP the “shrunken log2 fold change” value was -1.96.
With RRIRYRPPRLPRPRPRPHMPPRP the “shrunken log2 fold change” value was -0.38.
In the case of RRIRIRPPRLPRPRPRPQAWPRP, the “shrunken log2 fold change” value is reported as 0.386.
For RRIRIRPPRLPRPRPRPQIWPRP, the “shrunken log2 fold change” value was -0.174.
With RRIRLRPPRLPRPRPRPATYPRP the “shrunken log2 fold change” value was -0.212.
In the case of RRIRHRPPRLPRPRPRPDQKPRP, the “shrunken log2 fold change” value is reported as 0.0292.
In the case of RRIRDRPPRLPRPRPRPYMLPRP, the “shrunken log2 fold change” value is reported as -0.153.
For RRIRIRPPRLPRPRPRPGISPRP, the “shrunken log2 fold change” value was -0.27.
For RRIRERPPRLPRPRPRPQEEPRP, the “shrunken log2 fold change” value was -0.000946.
RRIRSRPPRLPRPRPRPNVMPRP was tested, and the “shrunken log2 fold change” value was -0.204.
In the case of RRIRTRPPRLPRPRPRPNPKPRP, the “shrunken log2 fold change” value is reported as 0.27.
With RRIRVRPPRLPRPRPRPHVSPRP the “shrunken log2 fold change” value was 0.108.
With RRIRQRPPRLPRPRPRPSCWPRP the “shrunken log2 fold change” value was 0.188.
With RRIRGRPPRLPRPRPRPCRNPRP the “shrunken log2 fold change” value was 0.0316.
For RRIRLRPPRLPRPRPRPVQNPRP, the “shrunken log2 fold change” value was 0.0224.
RRIRPRPPRLPRPRPRPHKNPRP was tested, and the “shrunken log2 fold change” value was -0.0554.
In the case of RRIRPRPPRLPRPRPRPLHFPRP, the “shrunken log2 fold change” value is reported as -0.207.
RRIRCRPPRLPRPRPRPYTMPRP was tested, and the “shrunken log2 fold change” value was -0.382.
With RRIRIRPPRLPRPRPRPESIPRP the “shrunken log2 fold change” value was -0.12.
With RRIRERPPRLPRPRPRPQMVPRP the “shrunken log2 fold change” value was -0.0708.
With RRIRTRPPRLPRPRPRPIPDPRP the “shrunken log2 fold change” value was -0.32.
RRIRSRPPRLPRPRPRPKFCPRP was tested, and the “shrunken log2 fold change” value was -0.471.
For RRIRKRPPRLPRPRPRPLWVPRP, the “shrunken log2 fold change” value was 0.0688.
RRIRGRPPRLPRPRPRPKAAPRP was tested, and the “shrunken log2 fold change” value was 1.26.
For RRIRYRPPRLPRPRPRPLRDPRP, the “shrunken log2 fold change” value was 0.0739.
With RRIRPRPPRLPRPRPRPDLLPRP the “shrunken log2 fold change” value was -0.0805.
In the case of RRIRNRPPRLPRPRPRPFASPRP, the “shrunken log2 fold change” value is reported as -0.0512.
For RRIRHRPPRLPRPRPRPNRTPRP, the “shrunken log2 fold change” value was 0.031.
For RRIRSRPPRLPRPRPRPTVTPRP, the “shrunken log2 fold change” value was 0.166.
For RRIRERPPRLPRPRPRPYYCPRP, the “shrunken log2 fold change” value was -0.913.
In the case of RRIRQRPPRLPRPRPRPTANPRP, the “shrunken log2 fold change” value is reported as 0.197.
RRIRRRPPRLPRPRPRPDVCPRP was tested, and the “shrunken log2 fold change” value was -0.000628.
For RRIRSRPPRLPRPRPRPRNPPRP, the “shrunken log2 fold change” value was 0.103.
In the case of RRIRMRPPRLPRPRPRPHMHPRP, the “shrunken log2 fold change” value is reported as 0.00917.
With RRIRERPPRLPRPRPRPEAFPRP the “shrunken log2 fold change” value was 0.0868.
RRIRSRPPRLPRPRPRPYWFPRP was tested, and the “shrunken log2 fold change” value was -0.624.
For RRIRQRPPRLPRPRPRPFESPRP, the “shrunken log2 fold change” value was -0.00719.
With RRIRFRPPRLPRPRPRPAIEPRP the “shrunken log2 fold change” value was 0.519.
In the case of RRIRHRPPRLPRPRPRPSLAPRP, the “shrunken log2 fold change” value is reported as -0.219.
For RRIRYRPPRLPRPRPRPFWCPRP, the “shrunken log2 fold change” value was -0.208.
RRIRSRPPRLPRPRPRPCQFPRP was tested, and the “shrunken log2 fold change” value was -0.0444.
With RRIRWRPPRLPRPRPRPDGRPRP the “shrunken log2 fold change” value was -0.00151.
For RRIRSRPPRLPRPRPRPESFPRP, the “shrunken log2 fold change” value was -0.0898.
RRIRWRPPRLPRPRPRPNFDPRP was tested, and the “shrunken log2 fold change” value was -0.0228.
With RRIRQRPPRLPRPRPRPHTHPRP the “shrunken log2 fold change” value was -0.342.
With RRIRKRPPRLPRPRPRPKPLPRP the “shrunken log2 fold change” value was 0.687.
In the case of RRIRPRPPRLPRPRPRPYTPPRP, the “shrunken log2 fold change” value is reported as -0.447.
In the case of RRIRYRPPRLPRPRPRPQYFPRP, the “shrunken log2 fold change” value is reported as -1.64.
RRIRPRPPRLPRPRPRPETFPRP was tested, and the “shrunken log2 fold change” value was 0.176.
For RRIRERPPRLPRPRPRPAWPPRP, the “shrunken log2 fold change” value was 0.359.
With RRIRTRPPRLPRPRPRPMYPPRP the “shrunken log2 fold change” value was 0.0537.
In the case of RRIRNRPPRLPRPRPRPMWRPRP, the “shrunken log2 fold change” value is reported as -0.0211.
In the case of RRIRQRPPRLPRPRPRPILMPRP, the “shrunken log2 fold change” value is reported as 0.0271.
In the case of RRIRRRPPRLPRPRPRPRTSPRP, the “shrunken log2 fold change” value is reported as 0.108.
RRIRSRPPRLPRPRPRPQATPRP was tested, and the “shrunken log2 fold change” value was -0.107.
RRIRIRPPRLPRPRPRPNHIPRP was tested, and the “shrunken log2 fold change” value was -1.16.
With RRIRLRPPRLPRPRPRPTEIPRP the “shrunken log2 fold change” value was -0.15.
With RRIRGRPPRLPRPRPRPFRVPRP the “shrunken log2 fold change” value was -0.149.
For RRIRNRPPRLPRPRPRPGDQPRP, the “shrunken log2 fold change” value was 0.0802.
With RRIRKRPPRLPRPRPRPGYKPRP the “shrunken log2 fold change” value was 0.236.
In the case of RRIRFRPPRLPRPRPRPLLDPRP, the “shrunken log2 fold change” value is reported as -0.0563.
With RRIRLRPPRLPRPRPRPRTVPRP the “shrunken log2 fold change” value was 1.24.
RRIRCRPPRLPRPRPRPYFPPRP was tested, and the “shrunken log2 fold change” value was -0.513.
For RRIRYRPPRLPRPRPRPSYDPRP, the “shrunken log2 fold change” value was -0.442.
For RRIRGRPPRLPRPRPRPHRHPRP, the “shrunken log2 fold change” value was 0.107.
For RRIRSRPPRLPRPRPRPHCNPRP, the “shrunken log2 fold change” value was -0.36.
In the case of RRIRKRPPRLPRPRPRPGGCPRP, the “shrunken log2 fold change” value is reported as 0.809.
For RRIRTRPPRLPRPRPRPFAQPRP, the “shrunken log2 fold change” value was -0.178.
For RRIRYRPPRLPRPRPRPVCLPRP, the “shrunken log2 fold change” value was -0.365.
RRIRNRPPRLPRPRPRPMNIPRP was tested, and the “shrunken log2 fold change” value was -0.24.
RRIRQRPPRLPRPRPRPYWDPRP was tested, and the “shrunken log2 fold change” value was -0.192.
For RRIRFRPPRLPRPRPRPLTLPRP, the “shrunken log2 fold change” value was -0.337.
With RRIRPRPPRLPRPRPRPVHRPRP the “shrunken log2 fold change” value was 0.0193.
With RRIRIRPPRLPRPRPRPVPLPRP the “shrunken log2 fold change” value was -0.442.
For RRIRHRPPRLPRPRPRPFDLPRP, the “shrunken log2 fold change” value was -0.211.
With RRIRLRPPRLPRPRPRPNNHPRP the “shrunken log2 fold change” value was -0.761.
For RRIRMRPPRLPRPRPRPEQRPRP, the “shrunken log2 fold change” value was 2.55.
With RRIRHRPPRLPRPRPRPTQEPRP the “shrunken log2 fold change” value was -0.0394.
For RRIRTRPPRLPRPRPRPQKAPRP, the “shrunken log2 fold change” value was 0.00748.
With RRIRKRPPRLPRPRPRPQQMPRP the “shrunken log2 fold change” value was 0.313.
For RRIRGRPPRLPRPRPRPPWQPRP, the “shrunken log2 fold change” value was 0.691.
In the case of RRIRQRPPRLPRPRPRPYPPPRP, the “shrunken log2 fold change” value is reported as -0.357.
In the case of RRIRVRPPRLPRPRPRPVAAPRP, the “shrunken log2 fold change” value is reported as 0.368.
For RRIRMRPPRLPRPRPRPHCGPRP, the “shrunken log2 fold change” value was -0.033.
With RRIRERPPRLPRPRPRPCLQPRP the “shrunken log2 fold change” value was -0.218.
RRIRIRPPRLPRPRPRPQLKPRP was tested, and the “shrunken log2 fold change” value was -0.456.
With RRIRMRPPRLPRPRPRPTPCPRP the “shrunken log2 fold change” value was 0.746.
In the case of RRIRNRPPRLPRPRPRPYVFPRP, the “shrunken log2 fold change” value is reported as -0.7.
With RRIRIRPPRLPRPRPRPQQQPRP the “shrunken log2 fold change” value was -0.061.
With RRIRGRPPRLPRPRPRPMADPRP the “shrunken log2 fold change” value was 0.173.
For RRIRWRPPRLPRPRPRPKPYPRP, the “shrunken log2 fold change” value was 3.05.
In the case of RRIRDRPPRLPRPRPRPQFLPRP, the “shrunken log2 fold change” value is reported as -0.225.
With RRIRKRPPRLPRPRPRPGTMPRP the “shrunken log2 fold change” value was 0.0526.
With RRIRARPPRLPRPRPRPVWHPRP the “shrunken log2 fold change” value was 0.324.
With RRIRRRPPRLPRPRPRPFCNPRP the “shrunken log2 fold change” value was -0.259.
